Values quoted from earlier work in PMC5969510, “Molecular mechanics of coiled coils loaded in the shear geometry” (Chemical Science, 2018).

Settings: unzip geometry
Text: To overcome these limitations and to investigate the sequence–structure–mechanics relationship of coiled coils in more systematic detail, site-specific coupling strategies were used in more recent experiments so that the mechanical coordinate was precisely defined. Using coiled coil homodimers, the force was applied to both helices at the same terminus so that the coiled coils were mechanically loaded in the so-called ‘unzip’ geometry.[11],[17],[37],[38]

For “vimentin: intermediate filament protein with coiled coil (literature)”, the “unzipping (unfolding) force” value is listed as 8–15 pN.
